# How the values were obtained:
# Assay in all cases: purified protein
# Conditions in all cases: anaerobic, normalized to 4 Fe per protein
# [1] = tested on: O=c1[nH]c(=S)ccn1[C@@H]1O[C@H](COP(=O)(O)OP(=O)(O)OP(=O)(O)O)[C@@H](O)[C@H]1O
# [2] = tested on: O=c1[nH]ccc(=S)[nH]1
# [3] = tested on: O=c1[nH]c(=S)ccn1[C@@H]1O[C@H](COP(=O)(O)O)[C@@H](O)[C@H]1O
# [4] = tested on: O=c1[nH]c(=S)ccn1[C@@H]1O[C@H](CO)[C@@H](O)[C@H]1O
# [5] = 100 mM MOPS/KOH pH 7.3, 30 °C, anaerobically purified
# [6] = 100 mM MOPS/KOH pH 7.3, anaerobically purified
substance,measurement,setting,value
TudS_A (uncultured bacterium),Km,[1]; [5],100 ± 23 µM
same,Vmax,[1]; [5],234 µmol/min/mg
same,kcat,[1]; [5],68.6 ± 3.4 s⁻¹
same,kcat/Km,[1]; [5],685000 M⁻¹ s⁻¹
same,Km,[2]; [5],240 ± 30 µM
same,Vmax,[2]; [5],2.4 µmol/min/mg
same,kcat,[2]; [5],0.7 ± 0.05 s⁻¹
same,kcat/Km,[2]; [5],2900 M⁻¹ s⁻¹
same,Km,[3]; [5],38 ± 13 µM
same,Vmax,[3]; [5],1000 µmol/min/mg
same,kcat,[3]; [5],293 ± 44 s⁻¹
same,kcat/Km,[3]; [5],7.77e+06 M⁻¹ s⁻¹
same,Km,[4]; [5],3100 ± 600 µM
same,Vmax,[4]; [5],30.1 µmol/min/mg
same,kcat,[4]; [5],8.8 ± 0.9 s⁻¹
same,kcat/Km,[4]; [5],2880 M⁻¹ s⁻¹
TudS_P (Pseudomonas sp. MIL19),Km,[1]; [6],117 ± 26 µM
same,Vmax,[1]; [6],168 µmol/min/mg
same,kcat,[1]; [6],52.3 ± 2.4 s⁻¹
same,kcat/Km,[1]; [6],448000 M⁻¹ s⁻¹
same,Km,[2]; [6],1490 ± 270 µM
same,Vmax,[2]; [6],15.9 µmol/min/mg
same,kcat,[2]; [6],4.93 ± 0.43 s⁻¹
same,kcat/Km,[2]; [6],3270 M⁻¹ s⁻¹
same,Km,[3]; [6],20 ± 7 µM
same,Vmax,[3]; [6],447 µmol/min/mg
same,kcat,[3]; [6],138 ± 16 s⁻¹
same,kcat/Km,[3]; [6],7.63e+06 M⁻¹ s⁻¹
same,Km,[4]; [6],200 ± 90 µM
same,Vmax,[4]; [6],64.3 µmol/min/mg
same,kcat,[4]; [6],19.9 ± 4.7 s⁻¹
same,kcat/Km,[4]; [6],103000 M⁻¹ s⁻¹

# Source: publication PMC10611767, “TudS desulfidases recycle 4-thiouridine-5’-monophosphate at a catalytic [4Fe-4S] cluster” (Communications Biology, 2023)
